Assay [1] deals with O2 LPS activation of NF-κB in RAW264.7-lux cells. Kind of assay: LPS neutralization assay (NF-κB luciferase, RAW264.7-lux), O2 LPS. The format is cell-based, murine. As to conditions: for neutralizing activity against O2 LPS (NF-κB activation): human IgG1 format; for neutralization of LPS-O2: secondary screening. The essentials: (§1)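 Serially diluted mAbs (human IgG1) pre-mixed 1:1 with LPS at 4 °C for 1 hr, then diluted 1:10 onto RAW264.7-lux cells carrying an NF-κB-driven firefly luciferase; 2.5 h at 37 °C. Luminescence read; % inhibition relative to no-antibody and negative-control mAb wells.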

The test system of another assay is O2 LPS. Kind of assay: ELISA binding to O2 LPS. The arrangement: species or system Klebsiella pneumoniae. As to conditions: secondary screening, ELISA. The essentials: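 Serial dilutions of monoclonal antibodies bound to LPS-coated plates for 1 h at room temperature, detected with alkaline phosphatase-conjugated anti-human IgG (1 h) and pNPP substrate (30 min). Absorbance read at 405 nm; EC50 values derived from binding curves.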
Background: An ELISA detects its analyte on a solid surface through an enzyme-linked reagent.

Another assay concerns KPC strain Kp977778_O2. Kind of assay: Lethal pneumonia model, KPC strain Kp977778_O2. The format is in vivo, Klebsiella pneumoniae. As to conditions: C57/BL6 mice, 3e8 CFU; mAb 2 mg/kg 1 hour post infection; survival. The protocol: (§2) C57/BL6 mice were obtained from Jackson Laboratories and maintained in a special pathogen-free facility. All animal experiments were conducted in accordance with Institutional Animal Care and Use Committee (IACUC) protocol and guidance. K. pneumoniae strains were grown on agar plates overnight and diluted in saline at proper concentration. The inoculum titer was determined by plating a serial dilution of bacteria onto agar plates prior to and post challenge. In acute pneumonia models, C57/BL6 mice were inoculated with 1e4 to 2e8 colony-forming units (CFU) of K. pneumoniae clinical isolates in 50 μl saline intranasally. Anti-K pneumoniae monoclonal antibodies (mAbs) and human IgG1 control antibodies were given 1-24 hour post bacterial challenge (therapeutic dosing). Mouse survival was monitored daily until up to day 8. Survival data of representative experiments were plotted in Graphpad Prism software.
(§3) Mice were challenged with 2e8 CFU of Klebsiella pneumoniae Carbanpenemase (KPC) strain Kp961842_O2 or with 3e8 CFU of KPC strain Kp977778_O2, followed by the administration of anti-O2 mAbs. When administered at a concentration of 2 mg/kg 1 hour post bacterial infection, Class III anti-O2 LPS mAbs KPN42, KPN179-IgG1, and KPS44v2017 protected mice from lethal bacterial challenge with the multi-drug resistant KPC strains Kp961842_O2 (FIG. 6, left panel, and FIG. 10) and Kp977778_O2 (FIG. 6B, right panel).

The test system of a further assay is KPC strain Kp961842_O2. Briefly: Lethal pneumonia model, KPC strain Kp961842_O2. The format is in vivo, Klebsiella pneumoniae. As to conditions: C57/BL6 mice, 2e8 CFU; mAb 2 mg/kg 1 hour post infection; survival. As to the method:
as §2, §3

Assay [2] deals with O1 LPS. Kind of assay: ELISA binding to O1 LPS. Also on record: species or system Klebsiella pneumoniae. As to conditions: secondary screening. As to the method:
The coated plates were incubated with cell culture supernatants from polyclonally stimulated lymphocytes (AMVBRA) or from monoclonal immortalized B cells (donor interrogations) containing fully human antibodies or with diluted plasma samples (PBMC donor selections) for 1 hour at room temperature. The plates were then washed with PBS containing 0.1% Tween-20 (PBS-T). Secondary antibody was added; either Alkaline Phosphatase-conjugated Goat Anti-Human IgG-AP (Southern Biotech, 2040-04, 1:1000 in PBS-B) or Peroxidase AffiniPure F(ab′)2 Fragment Goat Anti-Human IgG, Fc Fragment Specific (Jackson ImmunoResearch #309 036 098, 1:5000 in PBS-B) were used. Secondary antibodies were typically incubated for 1 h. Plates were washed three times with PBS-T, and P-NitroPhenyl Phosphate (pNPP, Sigma-Aldrich, cat #N2765-100TAB) or Sureblue (KPL, 53-00-03) substrates were added and incubated for 10 min or until the development of a colorimetric reaction. In the case of the HRP substrate Sureblue, the reaction was stopped by adding an equal volume of 0.2N HCl. The absorbance at 405 nm (pNPP) or 450 nm (Sureblue) was measured by a microplate reader (Biotek, Elx808).
The coated plates were incubated with serial dilutions of the monoclonal antibodies for 1 hour at room temperature. The plates were then washed with PBS containing 0.1% Tween-20 (PBS-T). Alkaline Phosphatase-conjugated Goat Anti-Human IgG (Southern Biotech, 2040-04, 1:1000 in PBS-B) was added. The secondary antibody reactions were incubated for 1 h. Plates were washed three times with PBS-T, and P-NitroPhenyl Phosphate (pNPP, Sigma-Aldrich, cat #N2765-100TAB) substrate was added and incubated for 30 min or until the development of a colorimetric reaction. The absorbance at 405 nm was measured by a microplate reader (Biotek, Elx808). The data was plotted with Graphpad Prism software. Representative mAbs from each class were tested for their binding to O1 LPS (FIG. 2A) and O2 LPS (FIG. 2B), and EC50 values were obtained (FIG. 2C). The majority of the anti-O2 LPS mAbs bound to both O1 and O2 LPS by ELISA. […] None of these LPS mAbs bound to the 03, 04, 05, 07, or 012 LPS serotypes (see e.g., FIG. 1A).

Assay [3] relates to K. pneumoniae 8570ΔcpsBLux (O2). Briefly: Opsonophagocytic killing (OPK) assay, O2 capsule mutant. The class given is cell-based, Klebsiella pneumoniae. The arrangement: key to D Capsule OPK O2: +++: Strongly positive activity; +: Positive activity; +/−: Somewhat positive depending upon the test conditions. The essentials:
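Luminescent capsule-deficient K. pneumoniae strains were mixed with DMF-differentiated HL-60 cells, 1:10 baby rabbit serum and anti-O2 LPS mAbs (2 ng–2.5 μg/mL), then shaken for 2 h at 37 °C. Killing % came from luminescence (RLU) against no-antibody and negative-control mAb wells, with >40% scored as positive.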

Assay [4] concerns O1 LPS activation of NF-κB in RAW264.7-lux cells. Briefly: LPS neutralization assay (NF-κB luciferase, RAW264.7-lux), O1 LPS. The class given is cell-based, murine. As to conditions: for neutralizing activity against O1 LPS (NF-κB activation): human IgG1 format; for neutralization of LPS-O1: secondary screening. The essentials:
as §1

For assay [5], the system named is O1 LPS. Briefly: Western blot of purified Klebsiella LPS serotypes, O1 LPS. As to conditions: FIG. 1A. The format is binding, Klebsiella pneumoniae. The text has this:
FIGS. 1A-B show the expansion of the O2 LPS serotype in multi-drug resistant (MDR) strains of Klebsiella pneumoniae.
SDS-PAGE analysis followed by Silver Stain confirmed the purity of LPS. Human antibodies against O2 serotypes were then identified based on the reactivity of human B cells against the respective purified LPS. […] (FIG. 1A).
(A western blot detects proteins with antibodies after separation by electrophoresis.)

The next assay deals with K. pneumoniae O1/O2. Kind of assay: Mouse protection models (O1/O2), Table 7 summary. The arrangement: key: +++: Strongly positive activity; +: Positive activity; +/−: Somewhat positive depending upon the test conditions. As to conditions: mouse pneumonia models. The class given is in vivo, Klebsiella pneumoniae. As to the method: As described in more detail in below, anti-O2 LPS mAbs were tested for: 1) binding to O1 and O2 LPS (see Example 5); 2) LPS neutralization (LPS-Neut) against O1 and O2 LPS (see Example 7); 3) OPK against capsule mutant strain 43816ΔcpsB lux (O1) and 8570ΔcpsB lux (O2) (see Example 8); and 4) protective activity in pneumonia models (see Example 9). O2 LPS mAbs were subsequently divided into three classes based on their in vitro activities. Class I mAbs were characterized as Binding (O1+O2+)/OPK (O1−O2+); Class 2 mAbs were characterized as Binding (O1+O2+)/OPK (O1+O2+); and Class III mAbs were characterized as Binding (O1±O2+)/OPK (O1−O2+).
as §2, with “Anti-K pneumoniae monoclonal antibodies (mAbs) and human IgG1 control antibodies were given 1-24 hour post bacterial challenge (therapeutic dosing).” left out, “Survival data of representative experiments were plotted in Graphpad Prism software.” left out

We go through two molecules from patent publication US12312397B2, “Anti-O2 antibodies and uses thereof” (priority 2016, dated 2025).

B1: KPD1: Class I anti-O2 antigen human mAb; VH SEQ ID NO: 134, VL SEQ ID NO: 135 (antibody, V domains shown)
VH: QVQLQESDPRLVKPSETLSLTCSVSGVSITSNTYWWAWIRQPPGKKLEWIGSLSYSGDTYYNPSLTSRVTISRDIHQNQFFLELNSVTAADTAMYYCARDPDIIRNFQFDYWGRGTLVTVSS
VL: EIVLTQSPGILSLSPGERATLSCRVSQILYMSHLAWYQHKPGQAPRLLIYGASIRATGVPDRFSGSGSGTDFTLTISRLEPEDFAVYYCQQYGASPTFGQGTMVEIK
modifications: Description of Artificial Sequence: SyntheticKPD1 VH polypeptide; Description of Artificial Sequence: SyntheticKPD1 VL polypeptide
B1: in assay [1], the “neutralizing activity against O2 LPS (NF-κB activation)” value is on record as “blocked” and the “neutralization of LPS-O2” value is listed as “neutralized”. In the assay on O2 LPS, the “binding to LPS-O2” value is reported as “showed binding”. The “protection from lethal bacterial challenge, Kp977778_O2” value with KPC strain Kp977778_O2 is given as “did not protect”. Besides, in the assay with KPC strain Kp961842_O2, the “protection from lethal bacterial challenge, Kp961842_O2” value is recorded as “did not protect”. In addition, the “binding to LPS-O1” value in the assay on O1 LPS [2] is “showed binding”. For the same molecule, the “OPK activity against O2 capsule mutant” value in assay [3] (secondary screening) is given as “showed OPK activity”. Also, in [4], the “neutralizing activity against O1 LPS (NF-κB activation)” value is “blocked” and the “neutralization of LPS-O1” value is “neutralized”. In addition, the “cross-reactivity with O1 LPS” value with O1 LPS [5] was “showed cross-reactivity with O1 LPS”.

B2: KPN70: Class I anti-O2 antigen human mAb; VH SEQ ID NO: 44, VL SEQ ID NO: 45 (antibody, V domains shown)
VH: QVQLQESGPGLVKPSETLSLTCTVSGGSISTYYWNWIRQSPGKELEWIANIHQSGTTYYNPSLKSRVTMSVDTSKNQFSLKVISVTAADTAVYYCARESDDGYKWNYFDYWGQGTLVTVSS
VL: EIVLTQSPASLSLSPGERATLSCRASQIVTNYLAWYQHKPGQAPRLLIFDMSIRAAGIPARFSGSGSGTDFTLTISSLEPEDFAVYYCQHRSNWPLFTFGPGTKVDIK
modifications: Description of Artificial Sequence: SyntheticKPN70 VH polypeptide; Description of Artificial Sequence: SyntheticKPN70 VL polypeptide
As for B2, in assay [1], the “neutralizing activity against O2 LPS (NF-κB activation)” value is recorded as “blocked” and the “neutralization of LPS-O2” value is “neutralize”. Besides, the “protection from lethal bacterial challenge, Kp977778_O2” value in the assay with KPC strain Kp977778_O2 was “did not protect”. The “Mouse protection models (O1/O2)” value in the assay with K. pneumoniae O1/O2 is “+/−”. Besides, the “protection from lethal bacterial challenge, Kp961842_O2” value with KPC strain Kp961842_O2 is “did not protect”. Also, in assay [3] (capsule mutant strain 8570ΔcpsB lux (O2)), the “D Capsule OPK O2” value was “+++”. In addition, in [4], the “neutralizing activity against O1 LPS (NF-κB activation)” value is “blocked” and the “neutralization of LPS-O1” value was “neutralize”.
